The record followed here is patent publication US20110301073, “Novel DNA-binding proteins and uses thereof” (Sangamo BioSciences, Inc., published 2011).

One data set has as its target T1, TALE13 +63 FokI (Xanthomonas axonopodis (engineered)).
T1 chain: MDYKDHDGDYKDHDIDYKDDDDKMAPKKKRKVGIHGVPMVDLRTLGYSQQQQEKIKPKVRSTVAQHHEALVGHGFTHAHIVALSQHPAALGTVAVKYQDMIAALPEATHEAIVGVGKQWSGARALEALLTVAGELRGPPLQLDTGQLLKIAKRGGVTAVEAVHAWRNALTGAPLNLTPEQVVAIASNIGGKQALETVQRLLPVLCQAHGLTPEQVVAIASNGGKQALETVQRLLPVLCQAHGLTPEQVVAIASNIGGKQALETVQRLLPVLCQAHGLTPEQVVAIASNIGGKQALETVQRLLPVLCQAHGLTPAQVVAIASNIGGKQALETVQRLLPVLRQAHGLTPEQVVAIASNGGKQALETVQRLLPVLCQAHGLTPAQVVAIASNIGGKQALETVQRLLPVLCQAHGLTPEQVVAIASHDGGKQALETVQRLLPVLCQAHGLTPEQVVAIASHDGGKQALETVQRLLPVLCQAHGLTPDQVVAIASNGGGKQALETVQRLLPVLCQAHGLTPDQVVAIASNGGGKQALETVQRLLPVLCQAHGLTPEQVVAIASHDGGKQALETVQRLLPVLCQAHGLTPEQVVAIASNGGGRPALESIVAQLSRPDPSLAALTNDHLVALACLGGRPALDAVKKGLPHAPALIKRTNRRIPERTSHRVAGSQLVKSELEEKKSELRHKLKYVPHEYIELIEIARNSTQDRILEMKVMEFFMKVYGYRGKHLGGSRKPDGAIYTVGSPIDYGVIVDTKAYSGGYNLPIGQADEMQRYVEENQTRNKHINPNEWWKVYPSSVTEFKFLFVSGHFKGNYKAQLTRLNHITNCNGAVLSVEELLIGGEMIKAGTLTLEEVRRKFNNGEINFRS
Briefly: cleavage_in_vitro; two inverted sites, 16 bp gap; NEB Buffer 2, 37 C. The following applies: tags: FLAG, NLS, chain copies: 2. How it is done:
TALE domain fusions were also constructed using Fold cleavage half domains. For these examples, wild type FokI half cleavage domains were used so that for nuclease activity, a homodimer must be formed from two of the fusions. For these fusions, the TALE13 DNA binding domain was fused to each FokI half domain by cloning the TALE DNA binding domain into a plasmid adjacent to FokI-specifying sequence. In addition, various linkers were tested for use between the DNA binding domain and the nuclease domain. Linkers L2 and L8 were used which are as follows: L2=GS (SEQ ID NO:71) and L8=[…] (SEQ ID NO:72). The target sites were cloned into a TOPO2.1 target vector (Invitrogen) with varying gap spacings between each target binding site such that the two were separated from each other by 2 to 22 bp. PCR amplification of an approximately 1 kb region of the target vector was done to generate the target DNAs. The TALE DNA binding domains were also truncated as described previously, and are described using the same nomenclature as described above in Examples 2 and 6. The TALE domain nuclease fusion clones were expressed in the TNT Rabbit Reticulocyte Lysate system by adding 5 μL of water containing 250 nanograms of the nuclease fusion clone plasmid to 20 μL of lysate and incubating at 30° C. for 90 minutes.
The lysate was then used to cleave the target DNAs as follows: 2.5 μL of lysate were added to a 50 μL reaction containing 50 nanograms of PCR-amplified target DNA and a final Buffer 2 (New England Biolabs) concentration of 1×. The cleavage reaction was for one hour at 37° C., followed by a 20 minute heat inactivation stage at 65° C. The reaction was then centrifuged at high speed to separate the target DNA from the lysate, causing the lysate to condense into a pellet in the reaction well. The DNA-containing supernatant was pipetted off and run on an ethidium bromide-stained agarose gel (Invitrogen) to separate intact target DNA from cleaved target DNA. The agarose gel was then analyzed using AlphaEaseFC (Alpha Innotech) software to measure the amount of target DNA present in the large uncleaved DNA band and the two smaller DNA bands resulting from a single cleavage event of the target DNA. The percentage of cleaved DNA out of the total amount of target DNA loaded into the gel represents the percent cleavage in each reaction.

Another data set addresses TALE13 N+137 C+95 (Xanthomonas axonopodis). Briefly: DNA-binding ELISA; replicates. The following applies: tags: N-terminal Met. From the text:
(§1) When clones #3, 4 and 5 were subjected to the SELEX procedure, no consensus sequences were detected. Thus it appears that the TALE binding domains require N- and C-terminal cap sequences comprised in from clone #2 to yield a consensus sequence in this assay. Additional truncations were made and tested for activity using a DNA binding ELISA assay essentially as described in Bartsevich et al., Stem Cells. 2003; 21:632-7. The truncations are presented below in Table 7, which also includes the ELISA results. The starting N-terminus in these truncations is at amino acid 152, identical to the N-terminus in the #1, #2, and #3 truncations discussed above. In this fine-scale truncation series, the end points are as follows.

In the next data set the target is TALE13 N+100 C+115 (Xanthomonas axonopodis). Briefly: DNA-binding ELISA; background level.
Description: as §1

A further data set has as its target TALE13 N+111 C+52 (Xanthomonas axonopodis). Briefly: DNA-binding ELISA; background level.
Description: as §1

The next data set concerns the target TALE13 N+91 C+52 (Xanthomonas axonopodis). Briefly: DNA-binding ELISA; background level.
Description: as §1

The target in a further data set is TALE13 N+100 C+52 (Xanthomonas axonopodis). Briefly: DNA-binding ELISA; background level.
Description: as §1

Another data set addresses TALE13 N+121 C+52 (Xanthomonas axonopodis). Briefly: DNA-binding ELISA; background level.
Description: as §1

The next data set concerns the target TALE13 N+91 C+115 (Xanthomonas axonopodis). Briefly: DNA-binding ELISA; background level.
Description: as §1

B1: TALE13 target (dsDNA)
DNA 1: TATAAATACCTTCT
DNA 2: AGAAGGTATTTATA
In turn, B1 showed an activity in the data set with TALE13 +63 FokI of 70 % cleavage. Also, the binding result with TALE13 N+137 C+95 is on record as “binds”; in the data set with TALE13 N+100 C+115 it was “no binding”; in the data set with TALE13 N+111 C+52, “no binding”; in the data set with TALE13 N+91 C+52, “no binding”; in the data set with TALE13 N+100 C+52 it was “no binding”; with TALE13 N+121 C+52 it was “no binding”. For the same molecule, in the data set with TALE13 N+91 C+115, the binding result is “no binding”.
